According to patent US20090041770A1:

Molecular target: human FcRn fused to a His-tag and glutathione S transferase (FcRn-His-GST), complex of FcRn heavy chain with beta-2-microglobulin (human) (UniProt P55899)
Assay: AlphaScreen competition

Going from K288Y (antibody) to P238M (antibody), the FcRn Binding ratio Variant / WT rises from 1.1 to 2.33.

First: G236F (antibody)
Second: K274G (antibody)
The FcRn Binding ratio Variant / WT of the first is higher: 1.75 for the first, 1.04 for the second.

Compared with Y278I (antibody), G236K (antibody) is lower in FcRn Binding ratio Variant / WT: 1.52 for the first, 1.38 for the second.

First: Y296E (antibody)
Second: A330V (antibody)
The FcRn Binding ratio Variant / WT of the first is lower: 1.23 for the first, 1.78 for the second.

First: S239D/E272I/I332E (antibody)
Second: P238D (antibody)
The FcRn Binding ratio Variant / WT of the first is higher: 1.81 for the first, 1.03 for the second.

Compared with Y300K (antibody), G237Q (antibody) is higher in FcRn Binding ratio Variant / WT: 1.01 for the first, 1.39 for the second.

First: F241E (antibody)
Second: S239E/V264I/I332E (antibody)
The FcRn Binding ratio Variant / WT of the first is lower: 1.09 for the first, 2.71 for the second.

Compared with S239Q/I332E (antibody), L328D/I332E (antibody) is higher in FcRn Binding ratio Variant / WT: 1.33 for the first, 11.8 for the second.

Compared with Y278M (antibody), K274F (antibody) is lower in FcRn Binding ratio Variant / WT: 1.28 for the first, 1.02 for the second.

Going from G237K (antibody) to S298F (antibody), the FcRn Binding ratio Variant / WT falls from 1.47 to 1.15.

Compared with P230E (antibody), G281Y (antibody) is higher in FcRn Binding ratio Variant / WT: 1.01 for the first, 1.46 for the second.

Compared with V240I (antibody), T260H (antibody) is higher in FcRn Binding ratio Variant / WT: 1.28 for the first, 7.3 for the second.

Compared with S239D/K326T/I332E (antibody), G237H (antibody) is lower in FcRn Binding ratio Variant / WT: 2.22 for the first, 1.48 for the second.

First: H285Y (antibody)
Second: E272I (antibody)
The FcRn Binding ratio Variant / WT of the first is higher: 1.25 for the first, 1.05 for the second.

First: P228K (antibody)
Second: P238E (antibody)
The FcRn Binding ratio Variant / WT of the first is lower: 1.55 for the first, 3.71 for the second.

Going from L234F (antibody) to S267K (antibody), the FcRn Binding ratio Variant / WT rises from 1.46 to 1.7.

First: P230G (antibody)
Second: Y278L (antibody)
The FcRn Binding ratio Variant / WT of the first is lower: 1.16 for the first, 1.74 for the second.

Going from V262E (antibody) to V264T (antibody), the FcRn Binding ratio Variant / WT falls from 9.27 to 1.66.

First: E269S (antibody)
Second: S239D/E272S/I332E (antibody)
The FcRn Binding ratio Variant / WT of the first is lower: 1.31 for the first, 1.49 for the second.

Compared with H285K (antibody), D265G (antibody) is lower in FcRn Binding ratio Variant / WT: 1.76 for the first, 1.74 for the second.

First: G236Q (antibody)
Second: L235S (antibody)
The FcRn Binding ratio Variant / WT of the first is lower: 1.46 for the first, 1.51 for the second.

Going from T335I (antibody) to K274N (antibody), the FcRn Binding ratio Variant / WT falls from 1.41 to 1.26.

Going from A330W (antibody) to T260Y (antibody), the FcRn Binding ratio Variant / WT rises from 1.02 to 7.51.

Going from L328W (antibody) to S239M (antibody), the FcRn Binding ratio Variant / WT falls from 1.35 to 1.03.

Compared with T299F (antibody), P228G (antibody) is lower in FcRn Binding ratio Variant / WT: 1.86 for the first, 1.77 for the second.

First: E272W (antibody)
Second: F241W (antibody)
The FcRn Binding ratio Variant / WT of the first is higher: 1.82 for the first, 1.7 for the second.

Compared with I336K (antibody), F243L/V262I/V264W (antibody) is lower in FcRn Binding ratio Variant / WT: 12.1 for the first, 1.35 for the second.

First: D221K (antibody)
Second: L234E (antibody)
The FcRn Binding ratio Variant / WT of the first is higher: 5.66 for the first, 1.25 for the second.

First: V264N (antibody)
Second: L328H/I332E (antibody)
The FcRn Binding ratio Variant / WT of the first is higher: 3.39 for the first, 1.16 for the second.

Going from V284L (antibody) to Y278N (antibody), the FcRn Binding ratio Variant / WT falls from 1.51 to 1.33.

Going from N276L (antibody) to P238W (antibody), the FcRn Binding ratio Variant / WT rises from 1.21 to 1.3.

First: L328N/I332E (antibody)
Second: E272Y (antibody)
The FcRn Binding ratio Variant / WT of the first is lower: 1.18 for the first, 2.08 for the second.

First: H224Y (antibody)
Second: T260D (antibody)
The FcRn Binding ratio Variant / WT of the first is lower: 1.68 for the first, 1.71 for the second.
